Test results taken from patent publication US20060035302A1, “Kinase substrates with multiple phosphorylation sites” (Applera Corporation, priority 2004, published 2006).
[ ]: non-standard residue; d: D form. The star is where a group is joined. dye2 = 5-carboxy-2′,7′-dipyridyl-sulfonefluorescein (Dye 2); Undecanoyl = CCCCCCCCCCC(=O)*; code O = not defined here

Experiments:
protein kinase p38βII = protein kinase p38βII (Homo sapiens, UniProt Q15759); test: Fluorogenic protein kinase assay, real-time fluorescence in 384-well plates; assay type: biochemical; conditions: substrate 8 μM; 10 and 100 μM ATP; compared with the kinase substrate with one recognition moiety (FIGS. 6A-6B)
Protocol: Kinase assays were performed using Coming 384-well, black, non-binding surface (NBS), microwell plates. Fluorescence was read in real time using a […] Gemini XS plate reader, with excitation and emission set at 500 and 550 respectively. The plate was read every minute for one hour at ambient temperature
Concentrations of dye-labeled peptides were determined by dilution of the purified peptides into dimethylformamide (200 μL) with 1 M NaOH (5 μL) and measuring the absorbance of either 5-carboxy-2′,7′-dipyridyl-sulfonefluorescein (i.e. dye2) at its absorbance maximum (548 nm) or 2′,7′,4,7-tetachloro-5-carboxy fluorescein (i.e. 2′,7′-dichloro-5-carboxy-4,7-dichlorofluorescein or “tet”) at its absorbance maximum (541 nm). The extinction coefficient of both dyes was assumed to be 80,000 cm^−1M^−1.
[…] The solution was pipetted into wells of a 384-well plate ([…] per well). Varying concentrations of ATP (final conc 10 and 100 μM) were added to the wells to initiate the kinase reaction. The plate was read at 500 nm excitation, 550 nm emission, each minute for 1 hour. The signal to background ratio for the kinase substrate with two recognition moieties (compound 2) was improved as compared to the signal to background ratio for the kinase substrate with one recognition moiety.

[1] = Net charge of substrate from its charged groups; assay type: physicochemical; conditions: pH 7.6; unphosphorylated substrate
Description: The net charge of the substrate can be established by including an appropriate number of negatively and positively charged groups in the substrate. For example, to establish a net neutral charge (net charge=0), the substrate is designed to contain an equal number of positively and negatively charged groups. […] Aspartate and glutamate contain carboxyl side chains having a single negative charge. A phosphoserine residue carries two negative charges on a phosphate group. […] In addition, the fluorescent moiety may also contain charged groups that should be considered to obtain a particular net charge of the substrate.
This is offset by the guanidinium groups in the two arginine residues, for a total of two positive charges. Thus, the net charge of the compound is about 0 at pH 7.6.

[2] = cited from earlier work
[3] = molecular target: T1, C11-OOK(dye2)RRIPLSPLSPOOK(C11)-amide
T1 chain: KRRIPLSPLSPK

[4] = molecular target: T2, C11OOK(dye 2)RRIPLSPOOK(C11)NH2
T2 chain: KRRIPLSPK

C11—OOK(dye2)RRIPLSPLSPOOK(C11)-amide ({Undecanoyl-code O-code O}-K(dye2)RRIPLSPLSP[code O][code O]K(Undecanoyl)-NH2; reading uncertain; also: printed as C11—OOK(dye2)RRIPLSPLSPOOK(C11)-amide) [compound 2, kinase substrate for p38βII; two recognition moieties, two hydrophobic moieties, Dye2]
signal to background ratio (protein kinase p38βII): improved signal to background ratio
net charge [1]: about 0

N[C@@H](Cc1c[nH]cn1)C(=O)O [Histidine (H), Histidine]
pK / pKa of side chain [2]: about 7

N[C@@H](CS)C(=O)O [Cysteine (C), Cysteine]
pK / pKa of side chain [2]: about 8

B1: protein kinase p38βII (protein)
chain: MSGPRAGFYRQELNKTVWEVPQRLQGLRPVGSGAYGSVCSAYDARLRQKVAVKKLSRPFQSLIHARRTYRELRLLKHLKHENVIGLLDVFTPATSIEDFSEVYLVTTLMGADLNNIVKCQALSDEHVQFLVYQLLRGLKYIHSAGIIHRDLKPSNVAVNEDCELRILDFGLARQADEEMTGYVATRWYRAPEIMLNWMHYNQTVDIWSVGCIMAELLQGKALFPGSDYIDQLKRIMEVVGTPSPEVLAKISSEHARTYIQSLPPMPQKDLSSIFRGANPLAIDLLGRMLVLDSDQRVSAAEALAHAYFSQYHDPEDEPEAEPYDESVEAKERTLEEWKELTYQEVLSFKPPEPPKPPGSLEIEQ
signal to background ratio (fluorescence kinase assay, 10 and 100 µM ATP) [3]: The signal to background ratio for the kinase substrate with two recognition moieties (compound 2) was improved as compared to the signal to background ratio for the kinase substrate with one recognition moiety
signal to background ratio, fold improvement over the substrate with one recognition moiety [3]: improved the signal to background ratio 3 to 5 fold
rate of reaction / signal to background ratio (fluorescence kinase assay, 10 and 100 µM ATP) [4]: comprising two protein kinase recognition moieties has an improved signal to background ratio as compared to the kinase substrate comprising one protein kinase recognition moiety, C11OOK(dye 2)RRIPLSPOOK(C11)NH2
